In the supplement of paper PMC10567573 one finds protein stability index data, which are given here for 53 sequences.

± gives the standard deviation.

A short description of the data set: protein stability index of a GFP-peptide fusion (GPS, HEK-293T) (PSI 1-6); higher = more stable.
Where [1] appears, read: treatment: DMSO, c terminus: a fixed tail appended.
Where [2] appears, read: treatment: MLN4924 1 uM, 8 h, c terminus: a fixed tail appended.
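Note: 24-mer peptide tiles fused after GFP, lentivirally expressed, FACS-sorted into six equal bins by GFP/DsRed ratio, decoded by Illumina sequencing, PSI is the read-weighted mean bin number.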

As to CQGQRLFEKLLQLTSQNIEIKLVS [PLD5], the protein stability index reads like this: under setting [1], 2.35 ± 0.19; under setting [2], 2.29 ± 1.3.
The like results for CQVEVRLLLAYNSSARIPKCPWME [INTS4] were, in that order, 3.21 ± 0.91 and 3.1 ± 0.25.
For CSKQSGSFRKFRYGYNNVVTIPAG [ADAMTS4], the protein stability index reads like this: under setting [1], 2.3 ± 0.44; under setting [2], 2.23 ± 0.35.
CSPALKRSHSDSLDHDIFQLIDPD [CDC25A] registered a protein stability index under setting [1] of 3.76 ± 0.34 and a protein stability index under setting [2] of 3.72 ± 0.41.
With CSYVVTRTISCHVQNGTYLQRVLQ [EMID1], the protein stability index came out at 2.44 ± 0.53 under setting [1] and 2.6 ± 0.36 under setting [2].
Turning to CVADNTNLYVFGGYNPDYDESGGP [KLHDC10], the protein stability index reads like this: under setting [1], 3.26 ± 0.14; under setting [2], 3.18 ± 0.34.
With CWDMYRHDIDCQWVDITDVPPGDY [LOXL2], the protein stability index runs as follows: under setting [1], 2.7 ± 0.36; under setting [2], 3.11 ± 0.3.
Take CWQGDPRVRPTFQEITSETEDLCE [RIPK4]: the protein stability index by setting is: under setting [1], 4.44 ± 0.67; under setting [2], 4.72 ± 0.24.
Regarding DALGMDPMMEHEMGGHHPGADYPV [CTNNB1], the protein stability index by setting is: under setting [1], 4.51 ± 0.36; under setting [2], 4.55 ± 0.16.
Turning to DAQGSEMVTCKSEFYHDEFKRWIY [GAN], the protein stability index is 2.61 ± 0.46 under setting [1] and 2.52 ± 0.13 under setting [2].
The like results for DDTPEVLNRALSNLSSRWKNWWVR [CDS2] were, in that order, 2.89 ± 0.058 and 3.12 ± 0.25.
For DEDEVAAEEPNAAVPDEIPPLEGD [HSP90AB1], the protein stability index was 5.49 ± 0.47 under setting [1] and 5.61 ± 0.24 under setting [2].
With DEHIASEEPAEKEDLLQQMLERRY [CLCN6], the protein stability index reads like this: under setting [1], 5.03 ± 0.2; under setting [2], 4.98 ± 0.16.
For DEIEFLKKLHEEELRDLQVSVESQ [PRPH] the same measures were 3.58 ± 0.7 and 4.07 ± 0.36.
DFANTIPGHGGIMDRFDCQYLMAT [CDS1] gave a protein stability index under setting [1] of 2.42 ± 0.21 and a protein stability index under setting [2] of 2.63 ± 0.42.
Turning to DFCKVFLISGVTLDNCVEVGRIAN [KLHL13], the protein stability index runs as follows: under setting [1], 2.47 ± 1.2; under setting [2], 2.12 ± 0.47.
Regarding DFFWNETWYLKTIDICHDHFGWYL [DHCR7], the protein stability index under setting [1] worked out at 3.26 ± 0.74 and the protein stability index under setting [2] was found to be 2.81 ± 0.35.
As to DGEVPQHAGKKGKLSEHLRYCDSI [BRD3], the protein stability index by setting is: under setting [1], 4.59 ± 0.23; under setting [2], 4.76 ± 0.23.
The like results for DGLREQLQAPVPPDSVPSLQNMGL [PBXIP1] were, in that order, 4.45 ± 0.1 and 4.4 ± 0.15.
For DIELDAARGDAVCTACGSVLEDNI [BRF1] the same measures were 4.88 ± 0.15 and 5.01 ± 0.37.
DIEMSMRGDIFERIVHLQETCDLG [NLN]: the protein stability index is 3.26 ± 0.47 under setting [1] and 3.22 ± 0.36 under setting [2].
Take DIKICALGEEWSLHKIYLCQSGYF [GMCL1]: the protein stability index is, setting by setting: under setting [1], 2.91 ± 0.62; under setting [2], 2.62 ± 0.49.
Take DITVSVSTSFLPELSSVHPPHYFF [FBXO3]: the protein stability index by setting is: under setting [1], 2.79 ± 0.48; under setting [2], 2.63 ± 0.58.
The like results for DKFVIVDCRYPYEYEGGHIKTAVN [CDC25B] were, in that order, 2.48 ± 0.28 and 2.21 ± 0.23.
For DKSEYLEMEEGVKESLCAKEEKCQ [KCNA4], the protein stability index under setting [1] was found to be 5.68 ± 0.1 and the protein stability index under setting [2] was found to be 5.54 ± 0.19.
On to DKYVGVSSDSVGGFRYSERYDPEP [CLINT1], for which the protein stability index amounted to 4.22 ± 0.23 under setting [1] and 4.27 ± 0.35 under setting [2].
The like results for DLESQVESLREELICLKKNHEEEV [KRT34] were, in that order, 4.86 ± 0.24 and 5.13 ± 0.16.
The like results for DLLKKAKFHHSDCLSTWLLHFIAT [RHOBTB3] were, in that order, 2.37 ± 0.44 and 2.34 ± 0.41.
In the case of DLLSCSNFAVQHRYLFEEDNLLRS [MATN2], the protein stability index amounted to 2.42 ± 0.18 under setting [1] and 2.43 ± 0.47 under setting [2].
The like results for DLPSSLLLPEDMALRNLPPLRAAH [SMG5] were, in that order, 3.56 ± 0.29 and 3.44 ± 0.16.
For the sequence DLSVPLMDVGETAMVTADSKYCYG [FKBP8], the protein stability index is, setting by setting: under setting [1], 4.1 ± 0.31; under setting [2], 4.44 ± 0.22.
The sequence DMERFMEEMRELRRKIRELQLRYS [BEX5] displayed a protein stability index under setting [1] of 2.44 ± 0.36 and a protein stability index under setting [2] of 2.56 ± 0.6.
On to DMKYGIYAVENEHMNRLQSQRAML [VTI1B], for which the protein stability index reads like this: under setting [1], 2.72 ± 0.25; under setting [2], 2.93 ± 0.31.
For the sequence DQEPLLSIDLGTAHSAAVTASGDC [NEK8], the protein stability index reads like this: under setting [1], 5.07 ± 0.32; under setting [2], 5.17 ± 0.26.
DRDPNSLLISCAVSYRGAWWYRNC [TNXB]: the protein stability index came to 2.83 ± 0.24 under setting [1] and 2.77 ± 0.98 under setting [2].
Turning to DREVDAATSATSHTRSLNSIIHQM [FBF1], the protein stability index worked out at 4.09 ± 0.15 under setting [1] and 4.21 ± 0.28 under setting [2].
As to DSSNPYPNFNFNISHQGDYAVLAA [AASDHPPT], the protein stability index is 3.24 ± 0.36 under setting [1] and 3.42 ± 0.41 under setting [2].
The like results for DSTLSYTETEATNSLITAPGEFSD [SMAD6] were, in that order, 5.34 ± 0.2 and 5.39 ± 0.17.
For the sequence DSTWLLLRRIRAESGTKGLFAGFL [SLC25A39], the protein stability index is, setting by setting: under setting [1], 2.63 ± 0.67; under setting [2], 2.58 ± 0.53.
As to DTKGKPTSRTQVYKPPALKKSNSP [ZC2HC1A], the protein stability index was found to be 4.89 ± 0.22 under setting [1] and 4.94 ± 0.18 under setting [2].
Take DTRLGQVSALPLPPAMKRYLLYQ [SPSB2]: the protein stability index worked out at 2.4 ± 0.42 (treatment: DMSO, c terminus: native) and 2.69 ± 0.3 (treatment: MLN4924 1 uM, 8 h, c terminus: native).
Take DTRSGFWYVCRTQGVEGDHCVTSD [TRIM35]: the protein stability index reads like this: under setting [1], 2.89 ± 0.31; under setting [2], 3.08 ± 0.34.
As to DVGENLTVPDEFTVEERQTGMWWR [SLC25A25], the protein stability index turned out to be 4.18 ± 0.14 under setting [1] and 4.16 ± 0.28 under setting [2].
On to DYELLQMLQIVVGVRDSGSPPLHA [PCDHGC5], for which the protein stability index by setting is: under setting [1], 2.3 ± 0.41; under setting [2], 2.18 ± 0.17.
Regarding DYSREVNTTEELEALITDPDEMRM [FEM1A], the protein stability index was determined as 5.11 ± 0.21 under setting [1] and 5.17 ± 0.18 under setting [2].
Turning to EAFKKHSLDLLSKERELNGKLRHL [CCDC89], the protein stability index is, setting by setting: under setting [1], 3.34 ± 0.25; under setting [2], 3.38 ± 0.14.
Consider EAMLYHNQTAELRELLEFTHMYLQ [P3H4], for which the protein stability index under setting [1] amounted to 2.48 ± 0.37 and the protein stability index under setting [2] came to 2.69 ± 0.62.
In turn, EDDDWGEDTTEEAQRRRMDEISDH [EIF5] came in with a protein stability index under setting [1] of 5.59 ± 0.24 and a protein stability index under setting [2] of 5.34 ± 0.18.
The like results for EDERVVGKEQGQNLARQWNNCAFL [RAP1B] were, in that order, 4.23 ± 0.23 and 4.09 ± 0.25.
Turning to EDGVWYSVAPMNVRRGLAGATTLG [KLHL12], the protein stability index runs as follows: under setting [1], 3.17 ± 0.23; under setting [2], 3.3 ± 0.17.
For EDIVFETDHILESLYRDIRDIQDE [STX11] the same measures were 4.08 ± 0.12 and 4.31 ± 0.14.
As for EDNEREGTENGAIDAVPVDENLFT [ZC3H15], the protein stability index is, setting by setting: under setting [1], 5.54 ± 0.15; under setting [2], 5.68 ± 0.23.
In the case of EDWVLLGMANGQQWLQSTSGSQRH [TLE6], the protein stability index runs as follows: under setting [1], 3.41 ± 0.5; under setting [2], 3.2 ± 0.4.
